Results published in patent US20180305421A1 (SHIRE HUMAN GENETIC THERAPIES, published 2018).

Legend:
myostatin [1] = molecular target: T1, myostatin (UniProt O14793 267-375); assay: cell-based or functional assay
T1 sequence (looked up): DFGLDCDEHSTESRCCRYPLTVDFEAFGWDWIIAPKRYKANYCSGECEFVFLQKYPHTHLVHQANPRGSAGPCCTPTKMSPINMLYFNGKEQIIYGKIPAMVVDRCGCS

BMP-2 = BMP-2 (UniProt P12643 283-396); assay: Biacore SPR, 25 C; Fc fusion captured with antibody capture kit, ligand as soluble analyte
Source text: (§1) Specifically, commercially available follistatins (FS315, manufactured by R&D Systems and follistatin-Fc human chimera FS315-hFc, manufactured by Sino Biological), and FS315-GAG3-mFc fusion proteins were used to assess binding affinity and kinetics to activin, myostatin, and BMPs using Biacore assays. Briefly, FS315 was immobilized onto a CM5 chip, and follistatin-Fc fusion proteins were captured using human or mouse antibody capture kits (GE Healthcare). Post amine-coupling, a concentration series of activin, myostatin, or BMPs (e.g., BMP-2, -4, -6, -7, -9, -10, and GDF-1) was added as soluble analyte at 25° C. sActRTIB-hFc was used as a control. Binding affinities (Kd) and kinetics were determined using standard methods.

BMP-10 = molecular target: T2, BMP-10 (UniProt O95393 317-424); assay: as above
T2 sequence (looked up): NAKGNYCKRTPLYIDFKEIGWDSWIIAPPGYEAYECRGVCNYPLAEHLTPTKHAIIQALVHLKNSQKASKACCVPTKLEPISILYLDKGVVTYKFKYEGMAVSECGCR
Source text: as §1

BMP-9 = molecular target: T3, BMP-9 (UniProt Q9UK05 320-429); assay: as above
T3 sequence (looked up): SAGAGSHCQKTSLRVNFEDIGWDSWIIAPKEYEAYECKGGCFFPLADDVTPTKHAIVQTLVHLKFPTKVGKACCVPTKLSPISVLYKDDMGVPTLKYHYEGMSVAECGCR
Source text: as §1

BMP-4 = molecular target: T4, BMP-4 (UniProt P12644 293-408); assay: Biacore SPR, 25 C; Fc fusion captured with mouse antibody capture kit, ligand as soluble analyte
T4 sequence (looked up): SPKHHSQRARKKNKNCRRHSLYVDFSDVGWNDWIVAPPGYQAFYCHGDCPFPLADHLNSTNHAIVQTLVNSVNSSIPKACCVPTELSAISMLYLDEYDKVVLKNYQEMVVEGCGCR
Source text: as §1

activin [2] = molecular target: T5, activin (UniProt P08476 311-426); assay: as above
T5 construct: also called activin A
T5 sequence (looked up): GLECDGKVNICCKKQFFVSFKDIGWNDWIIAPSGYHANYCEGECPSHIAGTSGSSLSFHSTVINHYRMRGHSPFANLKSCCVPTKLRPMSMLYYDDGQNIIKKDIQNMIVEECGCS
Source text: as §1

GDF-11 = molecular target: T6, GDF-11 (UniProt O95390 299-407); assay: as above
T6 sequence (looked up): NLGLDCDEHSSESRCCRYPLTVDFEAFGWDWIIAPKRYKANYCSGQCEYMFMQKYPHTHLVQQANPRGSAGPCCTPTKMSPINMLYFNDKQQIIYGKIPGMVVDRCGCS
Source text: as §1

myostatin [3] = molecular target: T1, myostatin; assay: as above
Source text: as §1

myostatin [4] = molecular target: T1, myostatin; assay: Biacore SPR (Table 3)
Source text: as §1

activin [5] = molecular target: T5, activin; assay: cell-based or functional assay
myostatin [6] = molecular target: T1, myostatin; assay: cell-based or functional assay; remark: listed apart in the source

Chain of BMP-2 (P12643 283-396 limits assumed): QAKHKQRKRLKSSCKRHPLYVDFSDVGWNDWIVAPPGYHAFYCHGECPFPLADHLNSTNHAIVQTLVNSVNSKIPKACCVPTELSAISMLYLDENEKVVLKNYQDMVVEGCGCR

IC50 (read off the curve); CAGA-luciferase reporter in HEK293 cells, myostatin (1.2 nM)-induced Smad2/3 signalling (myostatin [1]): ~300 pM | binding result (BMP-2): no binding | binding result (BMP-10): no binding | binding result (BMP-9): no binding | Kd (BMP-4): 81000 pM | Kd (activin [2]): 0.038 pM | Kd (GDF-11): 0.018 pM | Kd (myostatin [3]): 0.073 pM | fold increase of binding affinity against follistatin (FS315) (myostatin [4]): ≥ 10 fold | IC50, CAGA-luciferase reporter assay for Smad2/3 signaling (1.2 nM activin) (activin [5]): 360 pM | IC50, CAGA-luciferase reporter assay for Smad2/3 signaling (1.2 nM myostatin) (myostatin [6]): 460 pM
B1: FS315-GAG3-mFc (Fc fusion)
chain: GNCWLRQAKNGRCQVLYKTELSKEECCSTGRLSTSWTEEDVNDNTLFKWMIFNGGAPNCIPCKETCENVDCGPGKKCRMNKKNKPRCVCAPDCSNITWKGPVCGLDGKTYRNECALLKARCKEQPELEVQYQGRCKKTCRDVFCPGSSTCVVDQTNNAYCVTCNRICPEPASSEQYLCGNDGVTYSSACHLRKATCLLGRSIGLAYEGKCIKAKSCEDIQCTGGKKCLWDFKVGRGRCSLCDELCPDSKSDEPVCASDNATYASECAMKEAACSSGVLLEVKHSGSCNSISEDTEEEEEDEDQDYSFPISSILEWGAPGGGGGAAAAAGGGGGGAPGGGGGAAAAAGGGGGGAPGGGGGAAAAAGGGGGGAPGCKPCICTVPEVSSVFIFPPKPKDVLTITLTPKVTCVVVDISKDDPEVQFSWFVDDVEVHTAQTQPREEQFNSTFRSVSELPIMHQDWLNGKEFKCRVNSAAFPAPIEKTISKTKGRPKAPQVYTIPPPKEQMAKDKVSLTCMITDFFPEDITVEWQWNGQPAENYKNTQPIMDTDGSYFVYSKLNVQKSNWEAGNTFTCSVLHEGLHNHHTEKSLSHSPGK
notes: also called FS315-mFc; FS315-Fc
